From publication PMC5136619, “Crystal structure of bacterial haem importer complex in the inward-facing conformation” (Nature Communications, 2016)
Values belong to the substance of their own block, whether it stands above or below them.

How the values were obtained:
[1] = target: BhuUV haem importer complex (two BhuU and two BhuV) (Burkholderia cenocepacia)
[2] = target: BhuU, transmembrane permease subunit (TMD) of the haem importer BhuUV (Burkholderia cenocepacia); test: crystal structure; BhuUV-T complex, nucleotide-free and haem-free, in n-nonyl-beta-D-glucopyranoside; crystallised at 20 °C, 15% PEG 2000, 0.1 M HEPES pH 7.6; 3.2 Å
[3] = target: BhuU, transmembrane permease subunit (TMD) of the haem importer BhuUV (Burkholderia cenocepacia); test: crystal structure; BhuUV without BhuT, nucleotide-free; 30% PEG 400, 0.1 M NaCl, 0.1 M Li2SO4, 0.1 M Tris-HCl pH 8.5, 4 °C; 2.8 Å
[4] = target: BhuV, nucleotide-binding ATPase subunit (NBD) of the haem importer BhuUV (Burkholderia cenocepacia); test: crystal structure; BhuUV-T complex, nucleotide-free and haem-free, in n-nonyl-beta-D-glucopyranoside; crystallised at 20 °C, 15% PEG 2000, 0.1 M HEPES pH 7.6; 3.2 Å
[5] = target: BhuV, nucleotide-binding ATPase subunit (NBD) of the haem importer BhuUV (Burkholderia cenocepacia); test: crystal structure; BhuUV without BhuT, nucleotide-free; 30% PEG 400, 0.1 M NaCl, 0.1 M Li2SO4, 0.1 M Tris-HCl pH 8.5, 4 °C; 2.8 Å

ATPase activity (Vmax) of BhuUV in detergent solution on addition of haem-free BhuT (Vmax 5.0 to 7.1 μmol min^−1 mg^−1) [1]: 1.4 fold | ATPase activity of BhuUV reconstituted in liposomes, with BhuT [1]: 1.4 fold
Substance: BhuT, periplasmic haem-binding protein (PBP), residues 40-311 (domain or fragment)

Substance: BhuU, transmembrane permease subunit (TMD) of the haem importer BhuUV (natural protein)
stoichiometry N [2]: 2 | stoichiometry N [3]: 2

stoichiometry N [4]: 2 | stoichiometry N [5]: 2
Substance: BhuV, nucleotide-binding ATPase subunit (NBD) of the haem importer BhuUV (natural protein)
